Assay results published in the nanobody polyreactivity screen of Harvey et al. (2022).

Assay: yeast display, Sf9 membrane polyspecificity reagent, FACS + sequencing; frameworks hold sequencing errors
Summary of the method: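 Nanobodies from a synthetic yeast display library (Saccharomyces cerevisiae BJ5465), induced 36–48 hours with galactose, were stained 1 hour at 4 °C with 10% biotinylated, detergent-solubilized Sf9 membrane reagent, enriched on streptavidin microbeads, then FACS-sorted. Anti-HA (expression) and streptavidin (reagent binding) fluorescence set low and high (top ~1%) gates. Polyreactivity labels come from the gate of origin. Genes were colony-PCR amplified, MiSeq 2 × 250 sequenced and filtered by CDR length.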

Sequence: QVQLVESGGGLDQAGGSLRLSCADSGFTSDGYAKGSYTQAPGKEREFVADINSDGSTNYADSVKARFTISRDNAKNTVYLQLNSLIPEDSAVYYCAKDQAAYYLIPWYPLHDYWGQGTQVTLSS
- polyreactivity (PSR sort gate): low polyreactivity

Sequence: QVQLVESGGGLVQAGGSLRLSCAASGRIFYRYAMGWYRQAPGKERELVAGISNSGGSTYYADSVKGRFTISRDNAKNTVYLQMNSLKPADTAVYYCATGPSYRYDIGGGRIRYYYWGQGTQVSVSS
- polyreactivity (PSR sort gate): high polyreactivity

Sequence: QVQLVESGGGLVQAGGSLRLSCAASGFIFYSNAMGWYRPAPGKERELVAAISWGGGRTYYADSVKGRFTISRDNAKNTVYLQMNSLKPEDTAVYYCAAAGYHSGKGGGYWGQGTQVTVSS
- polyreactivity (PSR sort gate): high polyreactivity

Sequence: QVQLVESGGGLVQAGGSLRLSCAASGSTFPPNAMGRYRQAPGKERELVAAISFSSGRTYYADSVKGRFTFSRDNAKNTVYLQMNSLKPEDTAVYYCAADHGYLGQGTQVTVSS
- polyreactivity (PSR sort gate): low polyreactivity

Sequence: QVQLVESGGGLVQAGGSLRLSCAASGRIFPLYAMGWYRQAPGKERELGAAISSGGTTYYADSVKGRFTISRDNAKNTVYLQMNSLKPEDTAVYYCARRPAQRWGRFDYWGQGTQVTVSS
- polyreactivity (PSR sort gate): low polyreactivity

Sequence: QVQLVESGGGLVQAGGSLRLSCAASGRNFGYYTMGWYRQAPGKERELVARINYIGSSTYYADSVKGRFTISRDNAKNTVFLLMNSLKPEDTAVYYCAAETYYFGYGYWGQGTQVTVSS
- polyreactivity (PSR sort gate): high polyreactivity

Sequence: QVQLVESGGGLVQAGGSLRLSCAASGIIFPRNAMGWSREAPGKERELVAAITSGDTTNYADSVKGRFTISRDNAKKTVYLQMNSQKPADTAVYYCAADQFQGNSGFEYWGQGTQVTVSS
- polyreactivity (PSR sort gate): low polyreactivity

Sequence: QVQLVESGGGLVQAGGSLRLSCAASGRTFSYYARGWYRQAPGKERELVAAISSGGSTNYADSVKGRFTISRDNAKNTVYFQMNSLKPEDTAVYYCAALWSGYKFNYWGQGTQVTVSS
- polyreactivity (PSR sort gate): low polyreactivity

Sequence: QVQHVESGGGLVQAGGSLRLTCAASARIFRYYPMGRYRPAPGKERELVAGITTGGGSTYYADSVKGRFTISRENAKNTVYLQMNSLKPEDTAVFYCAARYYTTYYWGQGTQVTVSS
- polyreactivity (PSR sort gate): high polyreactivity

Sequence: QLQLVESGGGVVQAGGSLRLSCAATGRIDWNTMGWYRQAPGKERELVASISTGGGRTYYADSVKGRFTISRDNAKNTVYLQMISLKPEDTAVFYCNAVRTVWYRYEYGYWGQGTQVTVSS
- polyreactivity (PSR sort gate): high polyreactivity

Sequence: QVQLVESGGGLVQAGGTLRLSCAASGSTFGYYTMGWYRQAPGKERELVAAITWSGGSTYYADSVKGRFTISRDNAKKTVYLQMNSLKAEDSAVSYCAADDYWTPFGYSGQGTQVTVSS
- polyreactivity (PSR sort gate): low polyreactivity

Sequence: QVQLVESGGGLVQAGGSLRLSCAASGRTFQWYTMGWYRQAPGKERELVAAISLSGTSTYYADSVKGRFTISRDNAKNTVYLQMNSLNPEDTAVYYCAAEDIGRYYRLDYWGQGTQVTVSS
- polyreactivity (PSR sort gate): low polyreactivity

Sequence: QVQLVESGGGLVQAGGSLRLSCAASGITFKYYAMGWYRQAPGKERELVAAIRGGRTYYADSVKGRFTISRDNAKNTVYLQMNSLKPEDTAVYYCNARYYQSGIKYNYWGQGTQVTVSS
- polyreactivity (PSR sort gate): high polyreactivity

Sequence: QVQLVESGGGLVQAGGSLRLSCAASGRTFAFYAMGWYRQAPGKERELVASISSSGDRTYYADSVKGRFTISRDNAKNTVYLQMNSLKPEDTAVYYCAARWRYTYYYWGQGTQVTVSS
- polyreactivity (PSR sort gate): high polyreactivity

Sequence: QVQLVESGGGLVQAGGSLRLSCAASGRIFSNNAMGWYRQAPGKERELVAAISSSGSTYYADSVKGRFTISRDNAKNTVYLQINSLKPEDTAVYYCAVVYGYPYLRGYVFGFNYWGQGTQVTVSS
- polyreactivity (PSR sort gate): low polyreactivity

Sequence: QVQLVESGGGLVQAGGSLRLSCAASGGTSYAYTMGWYRQAPGKERELVAAISGSTGSTYYADSVKGRFTISRDNAKNTVYLQMNSLKPEDTAVYYCALLVGHNYWGQGTQVTVSS
- polyreactivity (PSR sort gate): low polyreactivity

Sequence: QVQLVESGGGLVQAGGSLRLSWAASGNIFLYYAMGWYRQAPGKERELVPDIDSSGASTYYADSVKGRFTISRDNAKNTVYLQMNSLKPEDTAVYYCAAEFHWWYAGDDYGYWGQGTQVTVSS
- polyreactivity (PSR sort gate): low polyreactivity

Sequence: QVQLVESGVGLVQAGGSLRLSCAASGRIFWDYGMGWYRQAPGKERELVAVITWGGGSTYYADSVKGRFTISRDNAKNTVYLQMNSLKPEDTAVYYCAKEYHYYYWGQGTEVTVSS
- polyreactivity (PSR sort gate): low polyreactivity

Sequence: QVQLVESGGGLVQAGGSLRLSCAASGSNFDDNAMGWYRQAPGKERELVAAINSTDITNYADSVKGRFTISRDNAKNTVYLQMTSLKPEDTAVYYCNVDDWGQGTQVTVSS
- polyreactivity (PSR sort gate): low polyreactivity

Sequence: QVQLEESGGRLVQEGGSLRLSCAASGSTFITNAMGWYRQAPGKEWELVAAITYSTGGTYYEDSVKGRFTISRDNAKNTVYLQMYSLKPEDTAVYYCAALLYFFLYDYWGQGTQVTVSS
- polyreactivity (PSR sort gate): low polyreactivity

Sequence: QVQLVESGGGLVQAGGSLRLSCAASVSTFQGYSMGWYRQAPGKERELVAAITTDGDSTYYADSVKGRFTISRDNAKNTVYLQMNSLKPEDTAVYYCAADQDGRWEGSSDPGDSWGQGTQVTVSS
- polyreactivity (PSR sort gate): low polyreactivity

Sequence: QVQLVESGGGLVQAGGSLRLSCAASGRIFSDYAMGWYRQAPGKERELVAAISWGGGRTYYADSVKGRFTISRDNAKNTVYLQMNSLKPEDTAVYYCNRGTVNSWARGYWGQGTQVTVSS
- polyreactivity (PSR sort gate): high polyreactivity

Sequence: QVQLVESGGGLVQAGGSLRLSCAASGSTFHAYAMGWYRQAPGKEREMVAAISWRGGSTYYADSVKGRFTISRDNAKNTVYLQMNSLKPEDTAVYYCAASVQGLFGTSGLEGVDYWGQGTQVTVSS
- polyreactivity (PSR sort gate): high polyreactivity

Sequence: QVQLVESGGGLVQAGGSLRLSCAASGITFPGNVMGWYRQAPGKERELVAAISTSGGSTYYADSVKGRFTISRDNAKNTVYLQMNSLKPEDTAVYYCARQYIRSSYGYWGQGTQVTVSS
- polyreactivity (PSR sort gate): low polyreactivity

Sequence: QVQLVESGGGLVQAGGSLRLSCAASGRIFVSYAMGWYRQAPGKERELVADMSWSGSITYYADSVKGRFTISRDNAKNTVYLQMNSLKPEDTAVYYCAKKSIYDYSTTYPEYDYWGQGTQVTVSS
- polyreactivity (PSR sort gate): low polyreactivity

Sequence: QVQLVESGGGLVQAGGSLRLSCAASGLILNYYTMGWYRQAPGKERELVATISSSTGSTYYADSVKGRFTISRDNAKNTVYLQMNSLKPEDTAVYYCAADHWSYWQIYDFWGQGTQVTVSS
- polyreactivity (PSR sort gate): low polyreactivity

Sequence: QVQLVESGGRLVQAGGSLRLSCAAAGSTIPKYAMGWYRQPPGKERELVAAITWRGGSTYYADSVKGRFTISRDNAKNTVYLQMNSLKPEDTAVDYCAAEPYYPSRMDYWGQGTQVTVSS
- polyreactivity (PSR sort gate): low polyreactivity

Sequence: QVQLVESGGGLVQAGGSLRLSCAASGFTFWQYAMGWYRQAPGKERELGAAITWDGGSTYYADSVKGRFTISRDTAKNTVYLQMNSLKPEDTAVYYRAKLFGGTYYEYDYWGQGTQVTVSS
- polyreactivity (PSR sort gate): low polyreactivity

Sequence: QVQLVESGGGLVQAGGSLRLSCAASGFIFLPYAMGWYRQAPGKERELVAAITRGGRTYYADSVKGRFTISRDNAKNTVYLQMNSLKPEDTAVYYCAATTYLVWGYNYWGQGTQVTVSS
- polyreactivity (PSR sort gate): low polyreactivity

Sequence: QVQLVESGGGLVQAGGSLRLSCAASGRIFNRNAMGWYRQAPGKERELVAAITGSGGITYYADSVKGRFTISRDNAKNTVYLQMNSLKPEDTAVYYCAARAKFLSLPTYDYWGQGTQVTVSS
- polyreactivity (PSR sort gate): high polyreactivity

Sequence: QVQLVESGGGLVQAGGSLRLSCAASGSTFEYNAMGWYRQAPGKERELVASSTNYAEAVKGRFTISRDNAKNTVYLQMNCLKPVDTAVYYCAREQGVNRNHDYWGQGTQVTVSS
- polyreactivity (PSR sort gate): low polyreactivity

Sequence: QVLLVESGGGLVQAGGSVRLICAASGSIFKKYALGWYRPATGEERELVAAISWRGGRTYYADSVTGRFTISRDNAKNTVFLQMNSLKPEDTAVYYCAKERYVSYRGGPWVDYWGQGTQVTVSS
- polyreactivity (PSR sort gate): high polyreactivity

Sequence: QVQLVESGGGLVQAGGSLRLSCAASGYYAMGWYRQAPGKERELVPAITWSGGTTYYADSVKGRFTISRDNAKNTVYLQMNSLKPEDTAVYYCNADFVRYTRHKKYYYWGQGTQVTVSS
- polyreactivity (PSR sort gate): low polyreactivity

Sequence: QVQLVESGGGLVQAGGSLRLSCAASGRIFGLYAMGWYRQAPGKERELVARITRGGSTYADSVKGRFTISRDNAKNSVYLQMNSLKPEDTAVYYCNAEWIVRNSGDYEYWGQGTQVTVSS
- polyreactivity (PSR sort gate): high polyreactivity

Sequence: QVQLVESGGGLVQAGGSLRLSCAASGGIFGYYVMGWYRQAPGKERELVAVITRGGSTNYADSVKGRFTISRDNAKNTVYLQMNSLKPEDTAVYYFAKDVPYRRVRSEYWGQGTQVTVSS
- polyreactivity (PSR sort gate): low polyreactivity

Sequence: QVQLVESGGGLVQAGGSLRLSCSASGRTFIVYAMGWYRQAPGKERELVAAITTSVGRTYYADSVKGRFTISRDNAKNTVYLQMNSLKPEDTAVYYCAADRLDGYSEYYYWGQGTQVTVSS
- polyreactivity (PSR sort gate): low polyreactivity

Sequence: QVQLVESGGGLVQAGGSLRLSCAGSGSTFHPYAMGWYRQAPGKVRELVAAITWGGGSTYYADSVKGRITISRDNAKNTVYLQMNSLKPEDTAVYYCNAYTLYWPDYDYWGQGTQVTVSS
- polyreactivity (PSR sort gate): low polyreactivity

Sequence: QVQLVESVGGLVQAGGSLRLSSSASGSNCVLNAIGWYRQAPGKEWELVAAITKVGSTYYADSVKGRFTISRDNAKNTVYLQMNSLIPEDTAVYYCNADPGEVLVGYDYWGQGTQVTVSS
- polyreactivity (PSR sort gate): low polyreactivity

Sequence: QDQLVESGGGLVQAGGSLRLSCAASGRTFSYNTMGWYRQAPGKERELVAAITRSGGSTYYADSVKGRFTISRDNAKNTVYLQINSLKPEDTAVYYCNARSWYWGQGTQVTVSS
- polyreactivity (PSR sort gate): high polyreactivity

Sequence: QFQLVESGGGLVQAGPSLLLSFAASGNTLHVYAMGRYRQAPGKERELVAAITSDVSTYYADSVKGRFTISRDNAKNTVYLQMHSLKPEDTAVYYFATTGYGSYLIYWGQGTQVTVSS
- polyreactivity (PSR sort gate): low polyreactivity

Sequence: QVQLVESGGGLGQAGGSLRLSCASSGFTFVPYAMVWYSPAPGKERELVAAIDFDDATTYYADSVKGRFTISRDNAKNTVYLQMNSMKPEDTALYYCAADGFYAPDDAPFYYWGQGTQVTVSS
- polyreactivity (PSR sort gate): high polyreactivity

Sequence: QVQLVESGGGFVQAGASLRLSCAASGSIFRIYAIGWYRQAPGKERELVAAIDSGGSTNYADSVKGRFTISRDNAKNTVYLQMNSLKPEDTAVYYCNVDAWWLSYSEYDYWGQGTQVTVSS
- polyreactivity (PSR sort gate): high polyreactivity

Sequence: QVQLVESGGGLVQAGGSLRLSSAASGSTFGKYARGWYRQAPGKERELVAAITVNAGRTYYADSVKGRFTISRDNAKNTVYLQLNSLKPEDTAVYYCAGVPRRYYARYYYWGQGTQVTVSS
- polyreactivity (PSR sort gate): high polyreactivity
